Test [1] deals with mutated I83 trastuzumab memAb (I83E). Nature of the test: SPR at 37° C., meditope over immobilised I83E trastuzumab memAb.
Another test has as its target HER2 on SKBR3 cells (UniProt P04626). As to the kind of experiment: Flow cytometry on SKBR3 cells with 10 nM complex on ice and an AF488 secondary antibody. The other quadrants are printed as Q1 1.19, Q3 0 and Q4 0.18.
The target in another test is HER2-Fc (R&D Systems) (UniProt P04626). As to the kind of experiment: SPR (Biacore T200), HER2-Fc amine-coupled to a CM5 chip, Fab flowed over; ± is the SD of three runs.
The target in test [2] is Her2 (antigen in the SPR of Example 1, FIG. 14) (UniProt P04626). As to the kind of experiment: SPR.
In test [3] the target is original trastuzumab memAb (meditope-enabled trastuzumab, I83 in the light chain). Nature of the test: SPR at 37° C., meditope over immobilised original trastuzumab memAb.

Consider “5-diphenylalanine meditope (FIG. 3) (peptide)”, for which the Kd in test [1] was 0.86 nM.
“A175C meFab conjugated to the AlexaFluor647 thiopyridine-meditope” had a Q2 (share of events positive for both the AF647 meditope and the AF488 secondary antibody) in the test with HER2 on SKBR3 cells of 98.6.
In the test with HER2-Fc (R&D Systems), “Trastuzumab I83E Fab (meditope-enabled trastuzumab V2 Fab)” returned an equilibrium dissociation constant (Kd) of 0.863 nM, a koff of 0.000674 s⁻¹ and a kon of 1.04e+06 M⁻¹ s⁻¹. For the same substance, in test [2], the Kd is 0.055 nM, the koff is 0.00021 s⁻¹ and the kon is 3.8e+06 M⁻¹ s⁻¹.
Take Trastuzumab I83E, A175C Fab: in the test with HER2-Fc (R&D Systems), the Kd worked out at 0.296 nM, the koff amounted to 0.000378 s⁻¹ and the kon came out at 1.28e+06 M⁻¹ s⁻¹.
As to original meditope, Ac-…-Am (peptide), the Kd was 38 nM in test [1] and 1000 nM in test [3].

The values are drawn from patent US20200368364A1, “CYSTEINE PEPTIDE-ENABLED ANTIBODIES” (City of Hope, priority 2016, published 2020).
